From patent publication US20260327304 (published 2026)

T1: human CD3 protein (human)
T1 chain: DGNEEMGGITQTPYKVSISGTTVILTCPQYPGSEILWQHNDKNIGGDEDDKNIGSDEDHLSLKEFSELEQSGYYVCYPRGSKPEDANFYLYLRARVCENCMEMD

T2: cynomolgus monkey CD3 protein (cynomolgus monkey)
T2 chain: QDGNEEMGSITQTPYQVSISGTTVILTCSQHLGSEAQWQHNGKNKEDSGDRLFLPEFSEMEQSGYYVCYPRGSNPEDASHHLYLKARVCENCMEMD


How the values were obtained:
human CD3 protein = molecular target: T1, human CD3 protein; assay: BLI
[1] = molecular target: T2, cynomolgus monkey CD3 protein; assay: BLI

Kd (human CD3 protein) [nM]	Kd [1] [nM]	Binder
26.3		huB1G5-CD3Fab (CD3 arm) (antibody, V domains shown) VH: EVQLVESGGGLVQPGGSLKLSCAASGFTFSTYAMNWVRQAPGKGLEWVGRIRSKYNNYATYYADSVKDRFTISRDDSKNTLYLQMNSLKTEDTAVYYCTRHGNFGNSYVSWFAYWGQGTTVTVSS VL: QAVVTQEPSLTVSPGGTVTLTCRSSTGAVTTSNYANWVQQKPGQAPRGLIGGTNKRAPGVPARFSGSLLGGKAALTLSGAQPEDEAEYFCALWYSNLWVFGGGTKLTVL
	6.59	huB1G5-CD3Fab (CD3 arm) (antibody, V domains shown, ACRO CDD-C52W4) VH: EVQLVESGGGLVQPGGSLKLSCAASGFTFSTYAMNWVRQAPGKGLEWVGRIRSKYNNYATYYADSVKDRFTISRDDSKNTLYLQMNSLKTEDTAVYYCTRHGNFGNSYVSWFAYWGQGTTVTVSS VL: QAVVTQEPSLTVSPGGTVTLTCRSSTGAVTTSNYANWVQQKPGQAPRGLIGGTNKRAPGVPARFSGSLLGGKAALTLSGAQPEDEAEYFCALWYSNLWVFGGGTKLTVL
	6.92	huB1G5-CD3-2VHH (CD3 arm) (antibody, V domains shown, ACRO CDD-C52W4) VH: EVQLVESGGGLVQPGGSLKLSCAASGFTFSTYAMNWVRQAPGKGLEWVGRIRSKYNNYATYYADSVKDRFTISRDDSKNTLYLQMNSLKTEDTAVYYCTRHGNFGNSYVSWFAYWGQGTTVTVSS VL: QAVVTQEPSLTVSPGGTVTLTCRSSTGAVTTSNYANWVQQKPGQAPRGLIGGTNKRAPGVPARFSGSLLGGKAALTLSGAQPEDEAEYFCALWYSNLWVFGGGTKLTVL
22.6		huB1G5-CD3-2VHH (CD3 arm) (antibody, V domains shown) VH: EVQLVESGGGLVQPGGSLKLSCAASGFTFSTYAMNWVRQAPGKGLEWVGRIRSKYNNYATYYADSVKDRFTISRDDSKNTLYLQMNSLKTEDTAVYYCTRHGNFGNSYVSWFAYWGQGTTVTVSS VL: QAVVTQEPSLTVSPGGTVTLTCRSSTGAVTTSNYANWVQQKPGQAPRGLIGGTNKRAPGVPARFSGSLLGGKAALTLSGAQPEDEAEYFCALWYSNLWVFGGGTKLTVL
35.7		huB1G5-ScFv-2VHH (CD3 arm) (antibody) EVQLVESGGGLVQPGGSLKLSCAASGFTFSTYAMNWVRQAPGKGLEWVGRIRSKYNNYATYYADSVKDRFTISRDDSKNTLYLQMNSLKTEDTAVYYCTRHGNFGNSYVSWFAYWGQGTTVTVSSGGGGSGGGGSGGGGSQAVVTQEPSLTVSPGGTVTLTCRSSTGAVTTSNYANWVQQKPGQAPRGLIGGTNKRAPGVPARFSGSLLGGKAALTLSGAQPEDEAEYFCALWYSNLWVFGGGTKLTVLG
	28.2	huB1G5-ScFv-2VHH (CD3 arm) (antibody, ACRO CDD-C52W4) EVQLVESGGGLVQPGGSLKLSCAASGFTFSTYAMNWVRQAPGKGLEWVGRIRSKYNNYATYYADSVKDRFTISRDDSKNTLYLQMNSLKTEDTAVYYCTRHGNFGNSYVSWFAYWGQGTTVTVSSGGGGSGGGGSGGGGSQAVVTQEPSLTVSPGGTVTLTCRSSTGAVTTSNYANWVQQKPGQAPRGLIGGTNKRAPGVPARFSGSLLGGKAALTLSGAQPEDEAEYFCALWYSNLWVFGGGTKLTVLG
